Target: T4L-β2AR (N-terminally fused T4 lysozyme-β2AR construct truncated in position 365), BI-167107 bound (human)
Experiment: crystal structure

Question: How did the buried surface for GαsRas turn out when “Gαs subunit of the heterotrimeric Gs protein (from UniProt P04896 2-394)” was run?
Answer: 1300 A^2

Question: What about the buried surface for the β2AR of the same substance?
Answer: 1280 A^2

Question: And the total buried surface of the β2AR-GαsRas interface?
Answer: 2580 A^2

Source: patent publication US20140275487A1
